Substitutions are numbered along the chain they refer to. Names may count otherwise.

In series [1] the target is T1, human GDP-mannose 4,6-dehydratase (hGMD) (Homo sapiens, UniProt O60547, E157Q).
T1 construct: gene GMDS; purified enzyme, wild type and point variants; homodimer in crystals (two to four homodimers per asymmetric unit); construct borders, tags and host only in supplement
T1 sequence (O60547 2-372 E157Q limits assumed): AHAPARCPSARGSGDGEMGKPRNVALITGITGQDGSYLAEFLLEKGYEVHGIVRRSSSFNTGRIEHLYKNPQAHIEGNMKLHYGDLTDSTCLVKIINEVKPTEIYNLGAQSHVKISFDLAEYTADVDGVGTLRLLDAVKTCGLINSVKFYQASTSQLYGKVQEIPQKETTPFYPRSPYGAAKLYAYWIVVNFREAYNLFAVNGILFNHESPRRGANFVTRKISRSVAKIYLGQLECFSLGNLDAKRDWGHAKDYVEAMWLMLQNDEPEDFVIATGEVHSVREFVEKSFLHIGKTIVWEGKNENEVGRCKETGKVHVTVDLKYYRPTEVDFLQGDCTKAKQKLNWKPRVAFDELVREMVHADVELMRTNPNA
Description: X-ray crystal structure, […] Å. The note with it: GDP-mannose also bound; NADP+ binding site.

Series [2] addresses T2, human GDP-mannose 4,6-dehydratase (hGMD) (Homo sapiens, UniProt O60547).
T2 construct: gene GMDS; purified enzyme, wild type and point variants; homodimer in crystals (two to four homodimers per asymmetric unit); construct borders, tags and host only in supplement
T2 sequence (O60547 2-372 limits assumed): T1 sequence (O60547 2-372 E157Q limits assumed) with Q156E
Description: isothermal titration calorimetry. Type of series: binding. For orientation: Isothermal titration calorimetry measures the heat released or taken up as one component is titrated into another.

Substrate in series [3]: Nc1nc2c(ncn2[C@@H]2O[C@H](COP(=O)(O)OP(=O)(O)O[C@H]3O[C@H](CO)[C@@H](O)[C@H](O)[C@@H]3O)[C@@H](O)[C@H]2O)c(=O)[nH]1
Description: initial rate measurements. The note with it: 37 °C. The format is biochemical, Homo sapiens. An excerpt: initial rate measurements on human GDP-mannose 4,6-dehydratase (hGMD)

Turning to `NC(=O)c1ccc[n+]([C@@H]2O[C@H](COP(=O)(O)OP(=O)(O)OC[C@H]3O[C@@H](n4cnc5c(N)ncnc54)[C@H](OP(=O)(O)O)[C@@H]3O)[C@@H](O)[C@H]2O)c1` [NADP^+], in series [1], the “X-ray crystal structure, 1.47 Å” value is “each monomer has bound GDP-mannose (purple) and NADP^+ (yellow)”. Turning to `Nc1nc2c(ncn2[C@@H]2O[C@H](COP(=O)(O)OP(=O)(O)O[C@H]3O[C@H](CO)[C@@H](F)[C@H](O)[C@@H]3O)[C@@H](O)[C@H]2O)c(=O)[nH]1` [GDP-4″-deoxy-4″-fluoro-mannose], binding in series [2] was characterised by a dissociation constant (Kd) of 1600 nM.

B1: human GDP-mannose 4,6-dehydratase (hGMD) (Homo sapiens) (protein)
chain: T1 sequence (O60547 2-372 E157Q limits assumed) with Q156E
notes: purified enzyme, wild type and point variants; homodimer in crystals (two to four homodimers per asymmetric unit); construct borders, tags and host only in supplement
Take B1: in series [3], the Michaelis-Menten constant (Km) came out at 8 ± 1 µM and the kcat is 0.42 ± 0.08 s⁻¹.

B2: human GDP-mannose 4,6-dehydratase (hGMD) (Homo sapiens; S156A) (protein)
chain: T1 sequence (O60547 2-372 E157Q limits assumed) with S155A, Q156E
notes: as for B1
For B2, in series [3], the Km was 127 ± 5 µM and the kcat stood at 0.05 ± 0.01 s⁻¹.

Broadly, the Kd is a measure of binding affinity in units of concentration. Higher therefore signals weaker binding. For orientation: Km means the substrate concentration at which the rate is half of its maximum. By kcat is commonly meant the maximal rate divided by the concentration of active sites.

These data come from paper PMC6454399, “A Parsimonious Mechanism of Sugar Dehydration by Human GDP-Mannose-4,6-dehydratase” (ACS Catalysis, 2019).
